These results are taken from article PMC12491506, “Identification of a RAB32-LRMDA-Commander membrane trafficking complex reveals the molecular mechanism of human oculocutaneous albinism type 7” (Nature Communications, 2025).

The test has as its target T1, recombinant LRMDA (tag-less) (human, UniProt A0A087WWI0 1-226).
T1 construct: LRMDA, human, full-length, longer isoform (this isoform was used in all experiments); gene synthesised with codon optimisation for S. frugiperda; also called purified LRMDA; HaloTag-TEV-LRMDA after TEV cleavage; source: Sf21 insect cells (baculovirus), purified (HaloLink resin, TEV cleavage); not shown: HaloTag, N-terminal, cleaved
T1 sequence (looked up): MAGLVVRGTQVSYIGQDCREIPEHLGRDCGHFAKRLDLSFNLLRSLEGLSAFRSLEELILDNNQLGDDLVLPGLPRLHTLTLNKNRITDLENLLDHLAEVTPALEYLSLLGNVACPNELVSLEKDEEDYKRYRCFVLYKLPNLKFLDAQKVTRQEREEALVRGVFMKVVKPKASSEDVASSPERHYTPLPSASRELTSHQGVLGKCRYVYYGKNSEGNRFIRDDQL
Kind of test: pull-down; 0.5 µM Retriever (His-tagged VPS29) on TALON resin with 1 µM LRMDA and 1 µM RAB32 together; 50 mM HEPES pH 7.2, 150 mM NaCl, 2 mM β-mercaptoethanol, 0.1% Triton X-100; 45 min at 4 °C; washes with 10 mM imidazole. Conditions: both partners purified.

B1: recombinant RAB32 (tag-less) (natural protein, human, UniProt Q13637 1-225, looked up)
chain: MAGGGAGDPGLGAAAAPAPETREHLFKVLVIGELGVGKTSIIKRYVHQLFSQHYRATIGVDFALKVLNWDSRTLVRLQLWDIAGQERFGNMTRVYYKEAVGAFVVFDISRSSTFEAVLKWKSDLDSKVHLPNGSPIPAVLLANKCDQNKDSSQSPSQVDQFCKEHGFAGWFETSAKDNINIEEAARFLVEKILVNHQSFPNEENDVDKIKLDQETLRAENKSQCC
notes: RAB32, human, full-length; also called purified RAB32; GST-TEV-RAB32 after TEV cleavage; source: Sf21 insect cells (baculovirus), purified (Glutathione Sepharose 4b, TEV cleavage); not shown: GST, N-terminal, cleaved
On to B1, for which the binding result was “binds”.
